Measured values as given in the DeepSol protein solubility set.

assay: soluble on expression in E. coli; label from the status in PepcDB or PDB records

With “MGSDKIHHHHHHMNRELILKALIDWNFWYKNQFVGIEREYSDQLLDLLEKGLAISVIGVKRSGKSTIINQVVKKLIEKKGEDPFDTLIVNFEDSRFGDIRTANDLFSLYELYKELRKKKKDSKPYIFLDEVQKIKGWEGFVRSIVDRKEANIVISGSTASVNNKSVREVLAGRHLILEVFPLSFKEFLEFKNIRLETELDMIAKESEIKVLFSEYLSYGGFPLVVSNERDKEKILLQLYEDIIFKDVISECNIRNEEEAKNLAIFYISNVGNKIRFRKISRSLNIPFRNVQRYTECMKNAYLIFFVKALSPKLSEMAKYDKKVYCIDNGISNVLGYRLNQNIGSLFENLIFLELLRRYGINNVFYYRGRRGEVDFVVKVKDEIREIYQVTYQLSDVERELKGIEEFLKIRKTKAYIITFDDEGEIKVGDDLVKVVKGWKWLLLE” as the sequence, how does the “soluble on expression in E. coli” value read?
Its value is “not soluble”.

With “MSLESAVKAESAGKSVAASLKARLEKTYSAQDLKVLSVSETPVKGIYEVVVSGRQIIYTDAEGGYMFVGELINIDTRKNLTEERAADLNKIDFASLPLDKAIKEVRGNGKLKVAVFSDPDCPFCKRLEHEFEKMTDVTVYSFMMPIAGLHPDAARKAQILWCQPDRAKAWTDWMRKGKFPVGGSICDNPVAETTSLGEQFGFNGTPTLVFPNGRTQSGYSPMPQLEEIIRKNQQEGHHHHHH” as the sequence, how does the “soluble on expression in E. coli” value read?
The value was “soluble”.

Which “soluble on expression in E. coli” value does the source give for “ANNRAEVDTLSPAQAAELKPMPQSWRGVLPCADCEGIETSLFLEKDGTWVMNERYLGAREEPSSFASYGTWARTADKLVLTDSKGEKSYYRAKGDALEMLDREGNPIESQFNYTLEAAQSSLPMTPMTLRGMYFYMADAATFTDCATGKRFMVANNAELERSYLAARGHSEKPVLLSVEGHFTLEGNPDTGAPTKVLAPDTAGKFYPNQDCSSLGQMASMTGGQQMGHHHHHH” here?
Its value is “soluble”.

Which “soluble on expression in E. coli” value does the source give for “AQGQTVYFHAWGGSQEINHYLQWANKELQSKYQVTLKHVKVSDISETIPRLIAEKAADKNTNGSVDMVWINGENFKSMKDNQLLFGPFTENLPSWKYVDKMLPIDVDFSEPTDGLEAPWGVGQLVFIHDSENLTNPPHSFAEMLSYAQKKPNSLSYPRPPEFHGTSVLKSMLIELTNNNPALQKPVSESDFNAVTAPLWDYLEKFHKVAWRGGKQFPAGTSETIQLLDDGQLDLAVTFNPNAVYSAQANGNLANTTKAYAMDSGALSNIHFLAIPWNAKASAGAQVAINFLLSPEAQSRKGDLNVWGDPSVLSSKYLTGSAKNTQQFKSVSEPHPSWQAAIEKEWLKRFGS” here?
The value was “not soluble”.

For “MGSDKIHHHHHHMSNHAIPARLQLRHITKRYPGCLANDAVDLTIQPGEIHALLGENGAGKSTLMKIIYGVTQPDAGSIIWQGQAQIMRNPAQARSLGIGMVFQHFSLFETLSVAQNIALAMGAAAGTPRQLEPRIREVSQRYGMAVEPQRLVHSLSIGERQKVEIIRCLMQDIHLLILDEPTSVLTPQEAEELFVTLRHLASEGCSILFISHKLGEVRALCHSATVLRNGKVSGHCIPAECSDLELARLMVGDAEGLTAHYEKVSGGAAFLQVDRLSWHNPDPFGCSLKDLSLEVCSGEIVGIAGVAGNGQDELLALLSGEQTLPHAQAATLRFANTPVGHLRPDARRKRGLAFVPAERLGHGAVPELSLADNALLTAFQQGLVSNGLIQRGKARALADEIIRRFAVKTPDAQAPARSLSGGNLQKFILGREILQNPKLLIAAHPTWGVDVGAAAAIHRALIALRDAGAAILVISEDLDELFQISDRLAALSGGQLSDLIPTEQTSTVQIGGWMAGQFDHSQTQAHTPG”, which “soluble on expression in E. coli” value is on record?
The value was “not soluble”.

For “MAFNSALFDGMVIFSEVVTSGSFTQAALNSGHSTSYISKEIGKLEERLGVRLLHRTTRTLRLTPEGELYFQQCQQLIEDAQMAENSITGQQEKPKGRLKVSCPVGFALSRLRPILGKFTDLYPDIILELDLNDKKIDIVAEGFDMAIRASHQLEDSSLISRRFLRSKAITIASPGYLKKHGAPLYPHDLSSHKTIGYAYVKQGAIWDFFDKNKQPFSVQLNSQVITNNSFMALSLCLAEQGITRIPHFHLTDELETGKLVELFADYPKLTIDIFMVYPSRKHMSAKVRCFMDFISEHLGD”, which “soluble on expression in E. coli” value is on record?
The value was “not soluble”.

With “HMGCAFLTYCARDSALKAQSALHEQKTLPGMNRPIQVKPADSESRGEDRKLFVGMLGKQQTDEDVRKMFEPFGTIDECTVLRGPDGTSKGCAFVKFQTHAEAQAAINTLHSSRTLPGASSSLVVKFADTEKERGLRRMQQVATQLGMFSPIALQFGAYSAYTQALMQQQAALVAAHSAYLSPMATMAAVQMQHMAAINANGLIATPITPSSGTSTPPAIAATPVSAIPAALGVNGYSPVPTQPTGQPAPDALYPNGVHPYPAQSPAAPVDPLQQAYAGMQHYTAAYPAAYSLVAPAFPQPPALVAQQPPPPPQQQQQQQQQQQQQQQREGPDGCNIFIYHLPQEFTDSEILQMFVPFGHVISAKVFVDRATNQSKCFGFVSFDNPASAQAAIQAMNGFQIGMKRLKVQLKRPKDANRPY” as the sequence, how does the “soluble on expression in E. coli” value read?
The value was “soluble”.

For “VQLLESGPGLVKPAQTLSLSCAVSGGSIRSGGYYWSWIRQHPGKGLEWIGYIYHSGNTYYNPSLKSRIAMSVDTSENKFSLRLNSVTAADTAVYYCARLDGYTLDIWGQGTLVTVSSSTKGPSVFPLAPSSKSTSGGTAALGCLVKDYFPEPVTVSWNSGALTSGVHTFPAVLQSSGLYSLSSVVTVPSSSLGTQTYICNVNHKPSNTKVDKRVEP”, which “soluble on expression in E. coli” value is on record?
Its value is “soluble”.

Which “soluble on expression in E. coli” value does the source give for “QEGYPFPSFHLRGTHPYRSILVSANTEALSPLLASAMDLARIFGSEVYVLFVSRVEAFMPPEEKELLENLKVLVERARKTSGLEVHLIRKEGNPVRETLRLLKGKFNLLALGYTPGRRTAFFRPYVPQLLAQASPVSTLLVPEVNLER” here?
The value was “not soluble”.

For “FMDELVSLTYRSRVRLADPVADIVQIMRASRVRNLRLGITGILLYNGVHFVQTIEGPRSACDELFRLISADPRHQEILAFDLEPITARRFPDWSMRIVSRKELRALAPDLERLDLSGPEDVAELHRTIAASLSRGDA”, which “soluble on expression in E. coli” value is on record?
Its value is “soluble”.

With “MTKLNAFLDTLGEGIRQKFWDIVAAAKTDAQTNLPSDKAKELAGEVISDFEQGNLFKSHQEISAELKSKFESLDDADKAAVKNLAKVYGKQAKALVMPHLPEDCKAKTDATDDAGKAAVAGGFDTGDYLPRKKRELLFIDNLTAAFREMRSRRGF” as the sequence, how does the “soluble on expression in E. coli” value read?
Its value is “not soluble”.

Which “soluble on expression in E. coli” value does the source give for “MGSDKIHHHHHHMKQLGLGLNLSTKKTRKREFLEDMERVVPWAVLVQIVAPHYPKAKTGRPPFGIETMLRIHYLQQWFGLSDPAMEEALHDVPLYREFAKLDSVTARLPDETTILRFRHLLERHNLAVDMLRVVNDLLQHKGLMMRTGTAVDATLISAPSSTKNAEGERDPEMKQTRKGNNWYFGMKAHIGVDAQSGLVHTVATTGANVNDLNMAGALLHGDEEAAFGDAGYQGVHKRPEAKGPTWHVAMRPGLRRKLNPFIEPDFIAERIEKMKASIRAKVEHPFRVIKRQFGFTKVRYRGLKKNTAQIVTLFALSNLWMARRQLIGARG” here?
Its value is “not soluble”.

With “MGSDKIHHHHHHMTSETVLEIRNVSKHFGAVKALTAVDFRLARGEVHALCGENGAGKSTLMNVIAGVLQPSEGEVLIEGAPVKIASPAVAQSLGIALVHQEIALCPDATIAENMFMAATNRRRSALMNYAQLERDAQAVMNRLAPIDVSQKVGDLPISSQQLVEIAKALTLDCRVLIFDEPTAALTETEAQVLFGIIRDLKARGISIIYISHRMAEVFSLCDRVTVFRDGRYVATEMVSDVTPDDVVRLMVGREISQLYPDKQPSSERLGEPILSVRDLGGERFRDVSFELRYGEILGVGGLIGSGRTEIAEGICALRPVTQGEIRLHDKVLRLRRYSDAAKAGVVYLSEDRKGSGVFLDLSIAQNIAALDLKALTSLGLLNSREERALAEDLTRRLGVRMGGVDMPVSSLSGGNQQKVAIAKQLAVDPKVILMDEPTRGIDVGAKSEIHRLLRELARAGIGILVISSELPELIGLCDRVLVVREGRIAGEVSGNEMTEEVIMRLASGIGPATETNLKASGHAA” as the sequence, how does the “soluble on expression in E. coli” value read?
The value was “not soluble”.

For “MAHHHHHHMAKVKMNPKLSSFTANAYEKKRQVGMYSKYIVDANPSGKDPSSSQTNKGNEYEEEDIVEKLRKREQSKQGGDYFMNAYKYTQPSAIIDYSSGEEQEYSQLLKKPKCPQCGVKNCVCGFMRSGGRRAR”, which “soluble on expression in E. coli” value is on record?
Its value is “soluble”.

For “MSLGFSTYRATNYNEGTAYGNTPVILTLKSTSKSNLKTAVEELQKLNASYSNTTTLAGDDRIQTAIEISKEYYNNDGEKQDHSADVKENVKNVVLVGANALVDGLVAAPLAAEKDAPLLLTSKDKLDSSVKSEIKRVLDLKTSTEVTGKTVYLAGGVNSVSKEVVTELESMGLKVERFSGDDRYETSLKIADEIGLDNDKAYVVGGTGLADAMSIASVASTKLDGNGVVDKTNGHATPIVVVDGKADRISDDLDSFLGSADVDIIGGFASVSEKMEEAISDATGKGVTRVKGDDRQDTNSEVIKTYYANDTEGHHHHHH”, which “soluble on expression in E. coli” value is on record?
Its value is “soluble”.

For “GPGSMNLELYVTLADLSRLPRGEPHDVKTLICRADTVRAPRPRELLSGRVFDISGQLLDTEYKGMPGETCVHVFFYDEWASAASFIERDDIVILKGFTVYDTPRVGDHDVEFPFFVTPIPHMAALRALQKGHKDDIMEVTVTADALETPNIRVMPKRLWGSYIANDMQCPRTNND”, which “soluble on expression in E. coli” value is on record?
The value was “soluble”.

For “MSYERRKTREVSVGTVKIGGENPISIQSMTNTDTRDADATIAQIKRLEEAGCDIVRVAVPDIKAAKNIAKIKSSVNIPIIADIHFDYKLALEAIKQGVDGIRINPGNIGSIERVKMVVEKCKERNLKIRIGVNGGSLEKELLKKYGSATAEALVESAMGHIKILEDLDFHNIVISLKSSDIYKTVDAYELISKKVDYPLHIGITESGSVHKGTIKSSIGVGALLLKGIGDTVRISLTGDPVEEVIVGKQILRSLGLLNDKIKVISCPTCGRCNIDLISVVNEVEEKIGSMEKNITVAIMGCAVNGPGEAREADIGIAGGKGEGLLFKKGEIVRMIDGNKLVDELLEEIEKL”, which “soluble on expression in E. coli” value is on record?
The value was “not soluble”.

With “MSLSANFSENISRLGLSSRSKQEKLAHLMETELTHLQASFIEAPTGLGKTYGYLLPILASGKGLVVSTATKVLQKQLVNDVAPKLGKTFGLKMAKIVGTKNYISLRKFSELLLNNTDGKNFEIFKMKILIWLTETRTGELDEVSKVMTNDDYFEVIRHDGYVNTKQLHYEQDFWLKAQKEAEQAEIKVVNHAYLIERLADYPETFLENRVLVVDEAQQLFPIMENAGQKSLKITDELIKIDAETSENPQLTKRLQESLVFQLNKKELDLNKIKIDADELGLRNLSALLEADNQIVWRENGMLYASDQDFYNFERLIPKNTKLFMLGATLSLSKDKPSFPDLLGFTDYRFFKIEGNQATNQQLLTVTDAPNIKNLSLIDYADYTANSIGELSKLNLPMVVLFTSKMALTFVAEKLSAEGFEILAQDINGSPAQIKKKFDKGEGKILLGLGSFWEGVDFDKQNQVILVIPRLPFATPDDILTKKYAQKFENPFYDFNVPMATLKLRQAIGRVNRRKNQYSSIVVLDKRLAGKSYAKRMRKNLSETLPVKMLNLLDTISEIKNFLIEGHHHHHH” as the sequence, how does the “soluble on expression in E. coli” value read?
Its value is “not soluble”.

With “MNSLSLPHRYPFLFIDGVTDSEPGKHAAAYKLISENDWFITDTQTEMPFSLVIEGLRKPRLLQELQMRTAWDYCLRKRKSWEKLCLVTGLILRLKSRAIGAGLCSDMPRHQLESSLLLKLKSASILKNEKNPSQHFVRGSILCRNPVRFESYLFAGVCVFHHSYFPSALHLEHHHHHH” as the sequence, how does the “soluble on expression in E. coli” value read?
Its value is “not soluble”.

For “MISSTKLSILALALVGAVLARPQFPGGPPPGMSAVPPPIAAVLPPETLARLEAIHADSSLSELEKHKAIDTIMVNLPEEVHDRIPPPPGFAQLPAEVQAQLKTIHRDKNLDFQERQAAIHGVLENLAPEFKRLLPPPPPGFPQRRQ”, which “soluble on expression in E. coli” value is on record?
Its value is “soluble”.
